# Patent publication US9957308B2, “Method for detecting bilirubin using a fluorescent protein” (RIKEN, priority 2013, dated 2018)
# B1: UnaG: fluorescent polypeptide including the amino acid sequence of SEQ ID NO: 1, originally isolated from Japanese eel; fluoresces in the presence of bilirubin (protein, listed as Anguilla japonica)
# chain: MVEKFVGTWKIADSHNFGEYLKAIGAPKELSDGGDATTPTLYISQKDGDKMTVKIENGPPTFLDTQVKFKLGEEFDEFPSDRRKGVKSVVNLVGEKLVYVQKWDGKETTYVREIKDGKLVVTLTMGDVVAVRSYRRATE
# Experiments:
# mammalian cell HEK293T = assay: Expression of recombinant UnaG protein in mammalian cells, fluorescence microscopy; assay type: cell-based; conditions: fluorescence microscope
# From the text: DNA to be inserted to an expression vector for mammalian cell was amplified by PCR using full-length cDNA of the UnaG gene of SEQ ID NO: 2 as template DNA, a sense primer (SEQ ID NO: 24), and an antisense primer (SEQ ID NO: 25). A FLAG-tag sequence (SEQ ID NO: 26) was inserted into the KpnI restriction enzyme site and the BamHI restriction enzyme site of expression vector pcDNA3 (Invitrogen) for mammalian cell, and the amplified DNA fragment was ligated to the BamHI restriction enzyme site and the EcoRI restriction enzyme site of the resulting pcDNA3-FLAG vector and transformed into Escherichia coli strain DH5α for cloning. The vector was extracted from Escherichia coli and was purified. The sequence was confirmed by DNA sequence analysis. Thus, a UnaG expression vector (pcDNA3-FLAG-UnaG) for mammalian cells was constructed. […]
# After the expression of protein, the medium was removed from each dish, and the cells were rinsed with PBS. […] The purified FLAG-UnaG protein (holo form) was irradiated with a UV transilluminator for verifying whether fluorescence was present or not. […]
# FIG. 1 includes diagrams showing expression of recombinant UnaG protein in Escherichia coli and mammalian cells. […] The diagram (c) includes a differential interference image and a fluorescence image by observation of mammalian cell HEK293T expressing recombinant UnaG protein under a fluorescence microscope. […]
# [1] = Measurement of fluorescence spectrum, absorption spectrum, quantum yield and fluorescence lifetime; assay type: physicochemical
# Experimental: In order to analyze the fluorescent properties of UnaG protein, the fluorescence spectrum, absorption spectrum, and quantum yield were measured. The excitation spectrum and the fluorescence spectrum were measured with a spectrophotofluorometer, RF-5300PC (Shimadzu Corporation), at an excitation wavelength of 475 nm and a fluorescence wavelength of 550 nm. The absorption spectrum was measured with a spectrophotometer, U-2900 (Hitachi High-Technologies Corporation). The quantum yield was measured with an absolute quantum yield measurement system, Quantaurus-QY (Hamamatsu Photonics K.K.) at excitation wavelengths of 470 nm and 480 nm. A known fluorescent protein, EGFP, was similarly measured, and the values were compared to those of UnaG protein.
# In order to analyze the fluorescent properties of R82EK84E mutant, the fluorescence spectrum, absorption spectrum, and quantum yield were measured. The measurement was performed by the same method as that described in the above-described paragraph 3. The fluorescence lifetime was measured with a small-sized fluorescence lifetime measurement system, Quantaurus-Tau (Hamamatsu Photonics K.K.) and was compared to that of wild-type UnaG protein.
# The fluorescence spectrum, absorption spectrum, and quantum yield (excitation wavelength: 470 nm) were measured for analyzing the fluorescent properties of holo A12ES80N mutant protein. The measurement was performed by the same method as that described in paragraph 3, above. The fluorescent properties were compared to those of wild-type UnaG protein.
# [2] = Table 3, wild-type vs R82EK84E mutant
# [3] = Table 3, wild-type vs R82EK84E mutant, holo form reconstructed with bilirubin
# [4] = Table 4, wild-type vs holo A12ES80N mutant
molecule,measurement,setting,value
B1,fluorescence of expressed protein in cells,mammalian cell HEK293T,emitted fluorescence
same,Maximum excitation wavelength,"[1]; Table 2, UnaG compared to EGFP",498 nm
same,Maximum fluorescence wavelength,"[1]; Table 2, UnaG compared to EGFP",527 nm
same,Brightness,"[1]; Table 2, [(Molar extinction coefficient) × (Quantum yield)]/1,000",39.4
same,Molar extinction coefficient,"[1]; Table 2, at the maximum excitation wavelength (498 nm UnaG, 490 nm EGFP)","77,300 (498 nm) M^−1 cm^−1"
same,Quantum yield,"[1]; Table 2, excitation wavelengths 470 nm and 480 nm",51%
same,Molar extinction coefficient,[1]; [2],"56,992 M^−1 cm^−1"
same,Quantum yield,[1]; [2],51%
same,Maximum excitation wavelength,[1]; [3],498 nm
same,Maximum fluorescence wavelength,[1]; [3],527 nm
same,Fluorescence lifetime (τ1/ns),"[1]; Table 3, wild-type vs R82EK84E mutant, Quantaurus-Tau",2.2 ns
same,Maximum excitation wavelength,[1]; [4],499 nm
same,Maximum fluorescence wavelength,[1]; [4],527 nm
same,Molar extinction coefficient,[1]; [4],"52,687 M^−1 cm^−1"
same,Quantum yield,"[1]; Table 4, excitation wavelength 470 nm",53.2%
same,Fluorescence lifetime,[1]; main fluorescent properties of UnaG,2.2 nanosecond
